Laboratory results reported in paper PMC11641934.

Molecular target: heat shock protein 70 (HSP70) (human (endogenous in PDAC cell lines and CAFs)) (UniProt P0DMV8)
UniProt P0DMV8, sequence (P0DMV8 whole entry): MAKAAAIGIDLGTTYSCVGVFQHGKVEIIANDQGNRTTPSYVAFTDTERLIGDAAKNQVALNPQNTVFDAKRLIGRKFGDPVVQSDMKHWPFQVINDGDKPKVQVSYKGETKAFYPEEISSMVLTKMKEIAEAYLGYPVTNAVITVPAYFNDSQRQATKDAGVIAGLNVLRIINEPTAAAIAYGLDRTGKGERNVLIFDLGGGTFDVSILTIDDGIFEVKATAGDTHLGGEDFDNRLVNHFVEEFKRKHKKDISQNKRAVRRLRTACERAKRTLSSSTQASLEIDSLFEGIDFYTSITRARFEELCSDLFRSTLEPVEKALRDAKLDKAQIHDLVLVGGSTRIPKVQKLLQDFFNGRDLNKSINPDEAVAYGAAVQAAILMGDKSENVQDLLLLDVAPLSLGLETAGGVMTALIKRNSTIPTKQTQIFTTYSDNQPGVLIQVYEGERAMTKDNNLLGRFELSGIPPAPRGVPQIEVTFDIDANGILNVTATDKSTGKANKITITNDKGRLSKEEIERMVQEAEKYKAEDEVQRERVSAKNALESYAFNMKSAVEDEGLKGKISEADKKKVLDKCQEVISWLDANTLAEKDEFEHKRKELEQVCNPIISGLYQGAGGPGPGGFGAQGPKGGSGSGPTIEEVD

- % rescue by recombinant Pn 2-1 in GEM-treated AsPC1 cells, CTRL siRNA group (counteracted by HSPA1A knockdown): 11.2%
- % rescue by recombinant Pn 2-1 in GEM-treated BxPC3 cells, CTRL siRNA group (counteracted by HSPA1A knockdown): 5.4%
- % rescue by recombinant Pn 2-1 in GEM-treated Panc1 cells, CTRL siRNA group (counteracted by HSPA1A knockdown): 86.3%
Substance: His tagged-recombinant Pn-ASV with exon 21 (Pn 2-1) (from UniProt Q15063-5 22-809) (natural protein)
